Reference: patent publication US12428489 (University of Texas, dated 2025)

B1: ADI-20810 (anti-PD-L2 antibody 20810), IgG (antibody, V domains shown)
VH: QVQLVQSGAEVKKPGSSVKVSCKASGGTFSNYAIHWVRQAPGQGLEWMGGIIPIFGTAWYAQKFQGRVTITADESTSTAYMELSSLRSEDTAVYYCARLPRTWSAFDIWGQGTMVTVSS
VL: EIVLTQSPATLSLSPGERATLSCRASQSVSSYLAWYQQKPGQAPRLLIYDASNRATGIPARFSGSGSGTDFTLTISSLEPEDFAVYYCQQVVTLPPTFGGGTKVEIK
notes: Tested as full-length IgG
B2: ADI-20810 Fab (Fab, V domains shown)
VH: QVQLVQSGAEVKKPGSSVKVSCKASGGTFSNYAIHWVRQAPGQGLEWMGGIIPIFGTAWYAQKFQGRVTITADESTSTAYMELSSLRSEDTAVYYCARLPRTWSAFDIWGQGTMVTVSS
VL: EIVLTQSPATLSLSPGERATLSCRASQSVSSYLAWYQQKPGQAPRLLIYDASNRATGIPARFSGSGSGTDFTLTISSLEPEDFAVYYCQQVVTLPPTFGGGTKVEIK
B3: ADI-20811 (anti-PD-L2 antibody 20811), IgG (antibody, V domains shown)
VH: QVQLVQSGAEVKKPGSSVKVSCKASGGTFSSAAIHWVRQAPGQGLEWMGGIIPIFGLAQYAQKFQGRVTITADESTSTAYMELSSLRSEDTAVYYCARLPRTWSAFDIWGQGTMVTVSS
VL: EIVLTQSPATLSLSPGERATLSCRASQSVSSYLAWYQQKPGQAPRLLIYDASNRATGIPARFSGSGSGTDFTLTISSLEPEDFAVYYCQQVVTLPPTFGGGTKVEIK
notes: Tested as full-length IgG
B4: ADI-20811 Fab (Fab, V domains shown)
VH: QVQLVQSGAEVKKPGSSVKVSCKASGGTFSSAAIHWVRQAPGQGLEWMGGIIPIFGLAQYAQKFQGRVTITADESTSTAYMELSSLRSEDTAVYYCARLPRTWSAFDIWGQGTMVTVSS
VL: EIVLTQSPATLSLSPGERATLSCRASQSVSSYLAWYQQKPGQAPRLLIYDASNRATGIPARFSGSGSGTDFTLTISSLEPEDFAVYYCQQVVTLPPTFGGGTKVEIK
B5: ADI-20816 (anti-PD-L2 antibody 20816), IgG (antibody, V domains shown)
VH: QVQLVQSGAEVKKPGSSVKVSCKASGGTFSSYLIAWVRQAPGQGLEWMGGIIPHFGVANYAQKFQGRVTITADESTSTAYMELSSLRSEDTAVYYCARVPQYHGYFDLWGRGTLVTVSS
VL: DIQMTQSPSSVSASVGDRVTITCRASQGISSWLAWYQQKPGKAPKLLIYAASNLQSGVPSRFSGSGSGTDFTLTISSLQPEDFATYYCQQGNSFPTFGGGTKVEIK
notes: Tested as full-length IgG; Clone family 55-g1
B6: ADI-20816 Fab (Fab, V domains shown)
VH: QVQLVQSGAEVKKPGSSVKVSCKASGGTFSSYLIAWVRQAPGQGLEWMGGIIPHFGVANYAQKFQGRVTITADESTSTAYMELSSLRSEDTAVYYCARVPQYHGYFDLWGRGTLVTVSS
VL: DIQMTQSPSSVSASVGDRVTITCRASQGISSWLAWYQQKPGKAPKLLIYAASNLQSGVPSRFSGSGSGTDFTLTISSLQPEDFATYYCQQGNSFPTFGGGTKVEIK
B7: anti-PD-L2 antibody 16510 (antibody, human IgG1, V domains shown)
VH: QVQLVQSGAEVKKPGSSVKVSCKASGGTFSSYAISWVRQAPGQGLEWMGGIIPIFGTANYAQKFQGRVTITADESTSTAYMELSSLRSEDTAVYYCARVQKQYTYFDLWGRGTLVTVSS
VL: DIQLTQSPSSLSASVGDRVTITCQASQDISNFLNWYQQKPGKAPKLLIYDASNLETGVPSRFSGSGSGTDFTFTISSLQPEDIATYYCQQLVGAPPTFGGGTKVEIK

Assays:
[1] = molecular target: T1, Cyno PD-L2-Fc (cyno, UniProt A0A2K5U5Z4 20-220); test: ForteBio Octet, IgG KD, Cyno PD-L2-Fc, avid
T1 construct: not shown: Fc part
T1 sequence: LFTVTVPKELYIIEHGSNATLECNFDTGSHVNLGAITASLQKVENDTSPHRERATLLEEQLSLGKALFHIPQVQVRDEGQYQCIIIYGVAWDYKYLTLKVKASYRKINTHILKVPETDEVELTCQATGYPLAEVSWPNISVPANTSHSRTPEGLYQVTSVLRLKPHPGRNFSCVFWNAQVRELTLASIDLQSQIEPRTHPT
Description: (§1) ForteBio K_D measurements—ForteBio affinity measurements were performed on an Octet RED384 generally as previously described (see, e.g., Estep et al., High throughput solution-based measurement of antibody-antigen affinity and epitope binning. Mabs 5(2), 270-278 (2013)). Briefly, ForteBio affinity measurements were performed by loading IgGs on-line onto AHQ sensors. Sensors were equilibrated off-line in assay buffer for 30 min and then monitored on-line for 60 seconds for baseline establishment. Sensors with loaded IgGs were exposed to 100 nM antigen for 3 minutes, and afterwards were transferred to assay buffer for 3 min for off-rate measurement. For monovalent affinity assessment Fabs were used instead of IgGs. For this assessment the unbiotinylated Fc fusion antigen was loaded on-line onto the AHQ sensors. Sensors were equilibrated off-line in assay buffer for 30 min and then monitored on-line for 60 seconds for baseline establishment. Sensors with loaded antigen were exposed to 100 nM Fab for 3 minutes, and afterwards they were transferred to assay buffer for 3 min for off-rate measurement. All kinetics were analyzed using the 1:1 binding model.

[2] = molecular target: T2, PD-L2 on CHO-PD-L2 cells (human, UniProt Q9BQ51 20-273); test: cell surface binding, panel 'Binding Assay PD-L2', MFI against Ab nM (flow cytometry on PD-L2 expressing cells)
T2 construct: also called human PD-L2
T2 sequence: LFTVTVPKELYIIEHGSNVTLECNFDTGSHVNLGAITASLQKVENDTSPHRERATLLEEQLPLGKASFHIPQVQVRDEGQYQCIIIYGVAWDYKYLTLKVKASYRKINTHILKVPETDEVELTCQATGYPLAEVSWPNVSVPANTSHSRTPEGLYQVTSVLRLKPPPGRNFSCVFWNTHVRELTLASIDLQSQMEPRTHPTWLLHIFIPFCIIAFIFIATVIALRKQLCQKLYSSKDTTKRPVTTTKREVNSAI

[3] = molecular target: T3, human PD-L2 protein (human, UniProt Q9BQ51 20-220, limits assumed); test: MFI against Ab nM; legend: binding to human PD-L2 protein, maximum fluorescence intensity, ForteBio Octet
T3 construct: also called analyte (PD-L2)
T3 sequence: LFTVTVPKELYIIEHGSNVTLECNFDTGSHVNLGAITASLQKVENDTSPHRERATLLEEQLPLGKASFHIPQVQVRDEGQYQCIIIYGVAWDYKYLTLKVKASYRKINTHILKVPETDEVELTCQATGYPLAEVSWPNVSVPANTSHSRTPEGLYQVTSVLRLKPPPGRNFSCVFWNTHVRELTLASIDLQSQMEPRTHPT
Description: Antibody Screening and Characterization. Antibody candidates generated from the presentation methods described above were tested for the capacity to bind to PD-L2 and block its binding to PD-1. 5 µg/mL of antibody was bound to CHO-PD-L2 cells and then recombinant PD-1 (RnD Systems) labelled with Alexa 532 (ThermoFisher) was added for 1 hour. PD-1 maximum fluorescence intensity was measured. Blockade of PD-1 binding was measured by reduction in Alexa 532 fluorescence by flow cytometry. […] The binding and release of the analyte (PD-L2) are recorded by the Octet instrument in real time and then used to calculate the KD, $Kon$, and $Kdis$; results are derived from 2:1 Global Fit Modeling with reference well subtraction. […]
PD-L2 antibodies avidly bind human PD-L2. […] Antibody subclones were immobilized on Anti-Human Fc Capture (AHC) Biosensors at 100 nM (15 μg/mL), and human PD-L2 protein association and dissociation was tested in dilution series from 30-0.37 nM (FIGS. 4A-B).

[4] = molecular target: T2, PD-L2 on CHO-PD-L2 cells; test: cell-based or functional assay
[5] = molecular target: T4, Human PD-L2-HIS (human, UniProt Q9BQ51 20-220); test: IgG KD, Human PD-L2-HIS, monovalent (method not named in the table: ForteBio or MSD-SET)
T4 construct: also called HIS-tagged protein (human PD-L2); not shown: HIS tag
T4 sequence: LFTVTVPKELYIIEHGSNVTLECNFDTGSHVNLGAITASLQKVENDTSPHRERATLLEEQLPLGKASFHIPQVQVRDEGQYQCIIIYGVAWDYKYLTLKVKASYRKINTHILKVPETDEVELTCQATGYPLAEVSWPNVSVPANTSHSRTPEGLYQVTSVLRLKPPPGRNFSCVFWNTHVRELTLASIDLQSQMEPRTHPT

[6] = molecular target: T5, Mouse PD-L2-Fc (mouse, UniProt Q9WUL5 20-219); test: ForteBio Octet, IgG KD, Mouse PD-L2-Fc, avid
T5 construct: not shown: Fc part
T5 sequence (looked up): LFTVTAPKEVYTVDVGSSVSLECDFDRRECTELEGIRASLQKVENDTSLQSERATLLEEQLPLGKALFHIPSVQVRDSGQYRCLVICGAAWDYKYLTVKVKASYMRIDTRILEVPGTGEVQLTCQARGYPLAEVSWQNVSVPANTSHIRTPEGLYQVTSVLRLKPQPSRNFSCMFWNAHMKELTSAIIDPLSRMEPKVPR

[7] = molecular target: T2, PD-L2 on CHO-PD-L2 cells; test: cell-based or functional assay; remark: listed apart in the source
[8] = molecular target: T6, Human PD-L2-Fc (human, UniProt Q9BQ51 20-220); test: ForteBio Octet, IgG KD, Human PD-L2-Fc, avid
T6 construct: also called Fc fusion antigen; not shown: Fc part
T6 sequence: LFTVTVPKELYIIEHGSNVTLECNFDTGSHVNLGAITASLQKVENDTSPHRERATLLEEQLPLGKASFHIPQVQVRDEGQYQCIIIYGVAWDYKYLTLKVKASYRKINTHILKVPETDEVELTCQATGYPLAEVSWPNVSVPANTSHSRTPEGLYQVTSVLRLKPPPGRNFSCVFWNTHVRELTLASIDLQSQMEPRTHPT

[9] = molecular target: T2, PD-L2 on CHO-PD-L2 cells; test: cell-based or functional assay; remark: listed apart in the source
[10] = molecular target: T6, Human PD-L2-Fc; test: ForteBio Octet, Fab KD, Human PD-L2-Fc on sensor, monovalent
Description: as §1

[11] = molecular target: T2, PD-L2 on CHO-PD-L2 cells; test: cell-based or functional assay; remark: listed apart in the source
[12] = molecular target: T2, PD-L2 on CHO-PD-L2 cells; test: competition assay by flow cytometry: antibody against Biotin-rhPD-1-Fc on PD-L2 expressing cells, Streptavidin-APC; axis 'Antibodies µg (logX)'

Binder | Kd [1] [nM] | EC50 (read off the curve) [3] [nM] | EC50 (read off the curve) [4] [nM] | Kd [5] [nM] | Kd [6] [nM] | Kd [8] [nM] | Kd [10] [nM] | also measured
B1 | 0.3 | ~0.7 | ~0.2 | 0.0025 | 0.503 | 0.331 | – | EC50 (read off the curve) [2]: ~0.7 nM; EC50 (read off the curve) [7]: ~0.4 nM; IC50 (Promega PD-1:PD-L2 bioassay, luciferase) [9]: 0.41 nM
B2 | – | – | – | – | – | – | 0.267 | –
B3 | 0.231 | ~0.3 | ~0.2 | 0.0085 | 0.259 | 0.248 | – | IC50 (Promega PD-1:PD-L2 bioassay, luciferase) [9]: 0.24 nM
B4 | – | – | – | – | – | – | 0.21 | –
B5 | 0.296 | ~0.9 | ~0.3 | 0.052 | 21.6 | 0.116 | – | IC50 (Promega PD-1:PD-L2 bioassay, luciferase) [Cont'd] [11]: 0.38 nM
B6 | – | – | – | – | – | – | 0.268 | –
B7 | – | – | – | – | – | – | – | IC50 (read off the curve) [12]: ~0.006 µg
